# From publication PMC9482650, “Quantitative fragmentomics allow affinity mapping of interactomes” (Nature Communications, 2022)
# Legend:
# Test in all cases: holdup assay
# Parameters in all cases: key: below the threshold = too weak to quantify, mostly under pKd 3.1 to 4
# Details in all cases: plain residues with an end cap or a label only (N-terminal biotin on a linker: ado-ado)
# APBA2_2, Q99767 = molecular target: T1, APBA2_2, Q99767
# T1 sequence (Q99767 654-744, limits assumed, looked up): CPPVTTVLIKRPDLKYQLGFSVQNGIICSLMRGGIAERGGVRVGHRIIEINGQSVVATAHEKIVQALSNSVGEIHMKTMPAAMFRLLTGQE
# DLG1_1, Q12959 = molecular target: DLG1_1, Q12959
# DLG4_1, P78352 = molecular target: DLG4_1, P78352
# Chain of DLG4_1, P78352 (P78352 62-152): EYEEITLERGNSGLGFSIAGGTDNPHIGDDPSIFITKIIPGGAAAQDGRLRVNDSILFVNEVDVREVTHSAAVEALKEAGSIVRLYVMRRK
# DLG4_3, P78352 = molecular target: DLG4_3, P78352
# Chain of DLG4_3, P78352 (P78352 306-403): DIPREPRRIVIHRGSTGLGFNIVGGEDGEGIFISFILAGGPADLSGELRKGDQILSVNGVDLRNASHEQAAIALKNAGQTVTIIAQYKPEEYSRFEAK
# FRMPD2_1, Q68DX3 = molecular target: FRMPD2_1, Q68DX3
# Chain of FRMPD2_1, Q68DX3 (Q68DX3 770-861): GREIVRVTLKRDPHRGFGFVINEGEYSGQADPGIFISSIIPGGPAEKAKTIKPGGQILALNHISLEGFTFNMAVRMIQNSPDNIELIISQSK
# FRMPD2_2, Q68DX3 = molecular target: FRMPD2_2, Q68DX3
# Chain of FRMPD2_2, Q68DX3 (Q68DX3 944-1038): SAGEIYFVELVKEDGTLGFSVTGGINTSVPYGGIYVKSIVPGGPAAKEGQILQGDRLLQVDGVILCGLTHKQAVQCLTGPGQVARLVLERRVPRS
# GRIP1_3, Q9Y3R0 = molecular target: T2, GRIP1_3, Q9Y3R0
# T2 sequence (Q9Y3R0 247-346, limits assumed, looked up): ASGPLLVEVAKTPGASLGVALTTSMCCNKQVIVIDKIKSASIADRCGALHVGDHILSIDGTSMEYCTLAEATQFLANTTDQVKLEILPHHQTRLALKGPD
# GRIP2_5, Q9C0E4 = molecular target: GRIP2_5, Q9C0E4
# Chain of GRIP2_5, Q9C0E4 (Q9C0E4 544-642): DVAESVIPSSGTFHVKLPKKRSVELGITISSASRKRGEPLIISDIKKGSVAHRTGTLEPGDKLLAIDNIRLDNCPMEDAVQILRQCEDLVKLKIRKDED
# HTRA1, Q92743 = molecular target: HTRA1, Q92743
# Chain of HTRA1, Q92743 (Q92743 360-477): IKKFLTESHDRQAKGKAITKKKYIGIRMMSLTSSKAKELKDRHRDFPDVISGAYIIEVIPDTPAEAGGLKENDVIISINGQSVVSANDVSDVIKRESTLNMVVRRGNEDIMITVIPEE
# HTRA4, P83105 = molecular target: T3, HTRA4, P83105
# T3 sequence (P83105 378-476, limits assumed, looked up): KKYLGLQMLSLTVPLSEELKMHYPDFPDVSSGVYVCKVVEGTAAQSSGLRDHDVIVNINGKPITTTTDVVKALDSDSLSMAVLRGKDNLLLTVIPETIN
# IL16_1, Q14005 = molecular target: IL16_1, Q14005
# Chain of IL16_1, Q14005 (Q14005 210-306): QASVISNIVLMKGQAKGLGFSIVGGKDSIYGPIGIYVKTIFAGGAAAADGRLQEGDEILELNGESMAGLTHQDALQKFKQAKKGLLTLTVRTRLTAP
# LDB3, O75112 = molecular target: LDB3, O75112
# Chain of LDB3, O75112 (O75112 1-94): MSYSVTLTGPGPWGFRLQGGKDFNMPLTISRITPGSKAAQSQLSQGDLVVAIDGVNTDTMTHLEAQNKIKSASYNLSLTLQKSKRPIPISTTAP
# LNX2_3, Q8N448 = molecular target: T4, LNX2_3, Q8N448
# T4 sequence (Q8N448 463-564, limits assumed, looked up): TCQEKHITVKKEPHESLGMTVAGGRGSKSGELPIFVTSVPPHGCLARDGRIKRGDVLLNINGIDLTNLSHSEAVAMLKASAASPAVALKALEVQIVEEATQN
# LRRC7, Q96NW7 = molecular target: T5, LRRC7, Q96NW7
# T5 sequence (Q96NW7 1440-1537, limits assumed, looked up): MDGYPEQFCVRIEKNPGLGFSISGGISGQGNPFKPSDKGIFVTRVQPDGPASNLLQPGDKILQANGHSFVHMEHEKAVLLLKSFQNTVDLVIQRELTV
# MAGI2_2, Q86UL8 = molecular target: MAGI2_2, Q86UL8
# Chain of MAGI2_2, Q86UL8 (Q86UL8 410-522): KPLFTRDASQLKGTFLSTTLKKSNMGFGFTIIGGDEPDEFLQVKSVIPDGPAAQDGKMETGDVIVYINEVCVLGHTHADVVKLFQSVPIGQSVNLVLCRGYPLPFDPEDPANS
# MAGI2_3, Q86UL8 = molecular target: MAGI2_3, Q86UL8
# Chain of MAGI2_3, Q86UL8 (Q86UL8 600-682): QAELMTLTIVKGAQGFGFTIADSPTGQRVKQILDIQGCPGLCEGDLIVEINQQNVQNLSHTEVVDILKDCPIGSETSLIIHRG
# MAST1, Q9Y2H9 = molecular target: MAST1, Q9Y2H9
# Chain of MAST1, Q9Y2H9 (Q9Y2H9 962-1065): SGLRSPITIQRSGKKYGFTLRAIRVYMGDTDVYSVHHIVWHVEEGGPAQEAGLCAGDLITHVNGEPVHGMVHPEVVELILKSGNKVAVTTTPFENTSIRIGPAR
# MPDZ_5, O75970 = molecular target: T6, MPDZ_5, O75970
# T6 sequence (O75970 695-796, limits assumed, looked up): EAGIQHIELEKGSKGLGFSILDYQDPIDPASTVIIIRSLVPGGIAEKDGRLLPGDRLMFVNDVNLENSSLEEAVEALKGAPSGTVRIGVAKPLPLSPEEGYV
# MPP6, Q9NZW5 = molecular target: T7, MPP6, Q9NZW5
# T7 sequence (Q9NZW5 125-219, limits assumed, looked up): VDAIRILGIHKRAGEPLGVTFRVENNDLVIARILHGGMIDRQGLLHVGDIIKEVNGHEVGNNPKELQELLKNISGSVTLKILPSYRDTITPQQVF
# NHERF2_2, Q15599 = molecular target: NHERF2_2, Q15599
# Chain of NHERF2_2, Q15599 (Q15599 142-238): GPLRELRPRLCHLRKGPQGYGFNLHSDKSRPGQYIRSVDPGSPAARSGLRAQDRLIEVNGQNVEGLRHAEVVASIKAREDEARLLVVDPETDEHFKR
# PDLIM1, O00151 = molecular target: PDLIM1, O00151
# Chain of PDLIM1, O00151 (O00151 1-87): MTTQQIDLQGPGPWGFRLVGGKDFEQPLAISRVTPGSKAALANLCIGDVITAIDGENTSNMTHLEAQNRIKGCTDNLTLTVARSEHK
# PICK1, Q9NRD5 = molecular target: PICK1, Q9NRD5
# Chain of PICK1, Q9NRD5 (Q9NRD5 17-115): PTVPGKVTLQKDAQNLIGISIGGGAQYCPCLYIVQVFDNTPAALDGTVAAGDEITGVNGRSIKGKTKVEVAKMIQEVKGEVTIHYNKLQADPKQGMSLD
# PTPN3, P26045 = molecular target: PTPN3, P26045
# Chain of PTPN3, P26045 (P26045 505-587): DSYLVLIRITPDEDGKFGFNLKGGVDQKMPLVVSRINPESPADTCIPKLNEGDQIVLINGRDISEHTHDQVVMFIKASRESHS
# RAPGEF6, Q8TEU7 = molecular target: T8, RAPGEF6, Q8TEU7
# T8 sequence (Q8TEU7 525-625, limits assumed, looked up): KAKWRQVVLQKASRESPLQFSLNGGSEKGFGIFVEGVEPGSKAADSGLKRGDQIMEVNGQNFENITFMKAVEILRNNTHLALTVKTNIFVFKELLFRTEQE
# SIPA1L2, Q9P2F8 = molecular target: T9, SIPA1L2, Q9P2F8
# T9 sequence (Q9P2F8 945-1036, limits assumed, looked up): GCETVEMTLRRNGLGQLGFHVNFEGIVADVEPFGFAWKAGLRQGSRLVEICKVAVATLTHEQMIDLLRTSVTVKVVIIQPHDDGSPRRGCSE
# SNTB1, Q13884 = molecular target: T10, SNTB1, Q13884
# T10 sequence (Q13884 107-205, limits assumed, looked up): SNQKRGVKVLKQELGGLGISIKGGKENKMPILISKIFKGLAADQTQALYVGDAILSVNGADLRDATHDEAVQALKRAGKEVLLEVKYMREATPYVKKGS
# TIAM2, Q8IVF5 = molecular target: T11, TIAM2, Q8IVF5
# T11 sequence (Q8IVF5 885-986, limits assumed, looked up): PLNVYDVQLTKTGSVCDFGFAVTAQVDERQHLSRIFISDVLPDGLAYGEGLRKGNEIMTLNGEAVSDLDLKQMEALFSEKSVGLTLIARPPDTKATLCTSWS
Binder,"pKd (APBA2_2, Q99767)","pKd (DLG1_1, Q12959)","pKd (DLG4_1, P78352)","pKd (DLG4_3, P78352)","pKd (FRMPD2_1, Q68DX3)","pKd (FRMPD2_2, Q68DX3)","pKd (GRIP1_3, Q9Y3R0)","pKd (GRIP2_5, Q9C0E4)","pKd (HTRA1, Q92743)","pKd (HTRA4, P83105)","pKd (IL16_1, Q14005)","pKd (LDB3, O75112)","pKd (LNX2_3, Q8N448)","pKd (LRRC7, Q96NW7)","pKd (MAGI2_2, Q86UL8)","pKd (MAGI2_3, Q86UL8)","pKd (MAST1, Q9Y2H9)","pKd (MPDZ_5, O75970)","pKd (MPP6, Q9NZW5)","pKd (NHERF2_2, Q15599)",also measured
"NPETRDETQL [KCNT1, Q5JUK3]",below the threshold,below the threshold,3.52,below the threshold,below the threshold,below the threshold,below the threshold,below the threshold,below the threshold,below the threshold,below the threshold,below the threshold,below the threshold,below the threshold,below the threshold,3.52,4.97,below the threshold,3.74,4.83,"pKd (PDLIM1, O00151): below the threshold; pKd (PICK1, Q9NRD5): below the threshold; pKd (PTPN3, P26045): 4.78; pKd (RAPGEF6, Q8TEU7): below the threshold; pKd (SIPA1L2, Q9P2F8): below the threshold; pKd (SNTB1, Q13884): 4.35; pKd (TIAM2, Q8IVF5): below the threshold"
"ASGLDKRDYV [CLDN9, O95484]",below the threshold,below the threshold,below the threshold,below the threshold,below the threshold,below the threshold,below the threshold,below the threshold,3.84,below the threshold,below the threshold,below the threshold,below the threshold,below the threshold,below the threshold,below the threshold,below the threshold,below the threshold,3.69,below the threshold,"pKd (PDLIM1, O00151): below the threshold; pKd (PICK1, Q9NRD5): below the threshold; pKd (PTPN3, P26045): below the threshold; pKd (RAPGEF6, Q8TEU7): below the threshold; pKd (SIPA1L2, Q9P2F8): below the threshold; pKd (SNTB1, Q13884): below the threshold; pKd (TIAM2, Q8IVF5): below the threshold"
"PDSNPEESSV [SEMA4C, Q9C0C4]",below the threshold,3.74,3.99,below the threshold,below the threshold,4.27,below the threshold,below the threshold,3.85,below the threshold,4.49,below the threshold,3.62,below the threshold,below the threshold,below the threshold,4.86,below the threshold,below the threshold,3.88,"pKd (PDLIM1, O00151): 3.54; pKd (PICK1, Q9NRD5): below the threshold; pKd (PTPN3, P26045): 4.83; pKd (RAPGEF6, Q8TEU7): below the threshold; pKd (SIPA1L2, Q9P2F8): below the threshold; pKd (SNTB1, Q13884): 4.46; pKd (TIAM2, Q8IVF5): below the threshold"
